Measurements: publication PMC6853996, “Assaying Homodimers of NF-κB in Live Single Cells” (Frontiers in Immunology, 2019)
Several values for one entry are separate records, joined by “and”; a condition that tells them apart may be missing. Identical values can stand only once.

What was measured:
[1] = target: T1, mEGFP-GR (mEGFP-tagged wild-type glucocorticoid receptor), P06537; assay: Number and Brightness (N&B) live-cell confocal fluorescence fluctuation microscopy; nuclei of live NIH3T3 fibroblasts transiently or stably expressing the mEGFP fusion, 37°C; brightness ε relative to the mEGFP-mutGR monomer control; stimuli 10 ng/mL TNFα, 100 ng/mL LPS, 100 nM Dex, dihydrotestosterone or progesterone; pre-treatments WFA (0.5 or 1 μM, 1 h) or TSA (2 h) before LPS; untagged endogenous protein present; conditions: remark: other sources report otherwise
T1 chain: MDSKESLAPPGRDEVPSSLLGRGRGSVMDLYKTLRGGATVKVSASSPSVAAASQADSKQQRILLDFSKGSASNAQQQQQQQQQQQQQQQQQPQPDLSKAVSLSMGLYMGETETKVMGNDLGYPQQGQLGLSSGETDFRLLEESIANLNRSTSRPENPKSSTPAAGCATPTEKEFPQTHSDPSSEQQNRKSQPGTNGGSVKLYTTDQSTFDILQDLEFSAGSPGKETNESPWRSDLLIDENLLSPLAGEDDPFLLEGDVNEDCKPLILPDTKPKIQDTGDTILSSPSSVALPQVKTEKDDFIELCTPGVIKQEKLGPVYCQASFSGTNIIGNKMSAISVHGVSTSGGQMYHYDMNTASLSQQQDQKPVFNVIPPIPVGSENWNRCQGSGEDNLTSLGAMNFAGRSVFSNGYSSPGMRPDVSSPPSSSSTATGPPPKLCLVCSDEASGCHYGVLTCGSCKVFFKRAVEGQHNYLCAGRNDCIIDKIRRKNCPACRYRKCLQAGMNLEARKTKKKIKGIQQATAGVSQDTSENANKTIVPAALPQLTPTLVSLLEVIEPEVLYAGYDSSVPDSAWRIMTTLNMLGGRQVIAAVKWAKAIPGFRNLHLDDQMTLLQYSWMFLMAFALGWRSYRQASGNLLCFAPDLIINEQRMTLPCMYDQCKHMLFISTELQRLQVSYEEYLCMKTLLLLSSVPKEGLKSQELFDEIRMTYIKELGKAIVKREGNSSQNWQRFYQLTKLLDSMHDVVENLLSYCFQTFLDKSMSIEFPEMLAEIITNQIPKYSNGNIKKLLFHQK

[2] = target: T2, mEGFP-RelA (fluorescent fusion protein expressed from the pSF-EF1α-Ub-Neo plasmid), Q04207; assay: Number and Brightness (N&B) live-cell confocal fluorescence fluctuation microscopy; nuclei of live primary mouse adult fibroblasts (WT or p50/c-Rel double-KO) transiently expressing mEGFP-RelA, 100 ng/mL LPS; brightness ε relative to the monomer control; untagged endogenous RelA present; conditions: remark: other sources report otherwise
T2 chain: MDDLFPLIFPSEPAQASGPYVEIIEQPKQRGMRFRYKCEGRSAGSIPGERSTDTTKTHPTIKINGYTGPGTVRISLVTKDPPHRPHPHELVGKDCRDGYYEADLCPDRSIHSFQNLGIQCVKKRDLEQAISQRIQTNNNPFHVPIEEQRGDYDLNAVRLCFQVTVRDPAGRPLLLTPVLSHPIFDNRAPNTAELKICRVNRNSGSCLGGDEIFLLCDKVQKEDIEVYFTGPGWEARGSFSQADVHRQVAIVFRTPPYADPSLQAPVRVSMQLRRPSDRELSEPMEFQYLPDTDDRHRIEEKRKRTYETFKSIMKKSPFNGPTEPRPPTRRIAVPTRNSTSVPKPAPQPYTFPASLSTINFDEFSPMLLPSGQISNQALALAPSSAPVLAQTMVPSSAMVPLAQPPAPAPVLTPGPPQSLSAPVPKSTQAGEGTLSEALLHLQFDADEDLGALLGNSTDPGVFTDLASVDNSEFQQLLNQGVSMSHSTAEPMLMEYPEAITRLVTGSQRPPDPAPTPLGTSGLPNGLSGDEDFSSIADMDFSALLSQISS

[3] = target: T2, mEGFP-RelA (fluorescent fusion protein …); assay: Number and Brightness (N&B) live-cell confocal fluorescence fluctuation microscopy; nuclei of live NIH3T3 fibroblasts transiently or stably expressing the mEGFP fusion, 37°C; brightness ε relative to the mEGFP-mutGR monomer control; stimuli 10 ng/mL TNFα, 100 ng/mL LPS, 100 nM Dex, dihydrotestosterone or progesterone; pre-treatments WFA (0.5 or 1 μM, 1 h) or TSA (2 h) before LPS; untagged endogenous protein present; conditions: remark: other sources report otherwise
[4] = target: T3, mEGFP-RelA from the knock-in (KI) mouse (mEGFP inserted at the endogenous RelA locus) (mouse), Q04207; assay: Number and Brightness (N&B) live-cell confocal fluorescence fluctuation microscopy; nuclei of live primary MAFs from the mEGFP-RelA knock-in mouse, treated with TNFα or LPS; all RelA tagged; conditions: remark: other sources report otherwise
T3 chain: T2 chain

[5] = target: the molecule itself; assay: Number and Brightness (N&B) live-cell confocal fluorescence fluctuation microscopy; nuclei of live NIH3T3 fibroblasts transiently or stably expressing the mEGFP fusion, 37°C; brightness ε relative to the mEGFP-mutGR monomer control; stimuli 10 ng/mL TNFα, 100 ng/mL LPS, 100 nM Dex, dihydrotestosterone or progesterone; pre-treatments WFA (0.5 or 1 μM, 1 h) or TSA (2 h) before LPS; untagged endogenous protein present

B1: mEGFP-GR (mEGFP-tagged wild-type glucocorticoid receptor), P06537 1-792 (natural protein)
chain: T1 chain
[1]
  nuclear brightness (ε) relative to monomer control; transiently transfected 3T3, Dex: 1.52

B2: mEGFP-RelA (fluorescent fusion protein expressed from the pSF-EF1α-Ub-Neo plasmid), Q04207 1-549 (natural protein)
chain: T2 chain
[2]
  nuclear brightness (ε) relative to monomer control; WT primary MAFs, LPS: 1.29
  nuclear brightness (ε) relative to monomer control; p50/c-Rel double-KO primary MAFs, LPS: 1.31
  percent of RelA-containing dimers in the nucleus that are homodimers (estimated from ε); WT primary MAFs, LPS: 20%
[3]
  median nuclear brightness (ε) relative to monomer control; stably transfected 3T3, LPS: 1.75
  median nuclear brightness (ε) relative to monomer control; stably transfected 3T3, TNFα: 1.61
  median nuclear brightness (ε) relative to monomer control; transiently transfected 3T3, TNFα: 1.52
  nuclear brightness (ε); stably transfected 3T3, 0.5 μM WFA before LPS: 1.57
  nuclear brightness (ε); stably transfected 3T3, 1 μM WFA before LPS: 1.61
  nuclear brightness (ε); stably transfected 3T3, TSA before LPS (concentration not given): 1.42 and 1.58
  percent dimers (estimated from ε); stably transfected 3T3, LPS: 60%
  percent dimers (estimated from ε); stably transfected 3T3, TNFα: 43%
  percent of RelA dimer species that are RelA homodimers (estimated from ε); transiently transfected 3T3, TNFα: 35%

B3: mEGFP-RelA from the knock-in (KI) mouse (mEGFP inserted at the endogenous RelA locus), Q04207 1-549 (natural protein)
chain: T2 chain
[4]
  percent of RelA dimer species that are RelA homodimers; knock-in MAFs, TNFα or LPS: < 35%

B4: mEGFP-PR (mEGFP-tagged progesterone receptor) (natural protein, UniProt P06401 1-933, looked up)
chain: MTELKAKGPRAPHVAGGPPSPEVGSPLLCRPAAGPFPGSQTSDTLPEVSAIPISLDGLLFPRPCQGQDPSDEKTQDQQSLSDVEGAYSRAEATRGAGGSSSSPPEKDSGLLDSVLDTLLAPSGPGQSQPSPPACEVTSSWCLFGPELPEDPPAAPATQRVLSPLMSRSGCKVGDSSGTAAAHKVLPRGLSPARQLLLPASESPHWSGAPVKPSPQAAAVEVEEEDGSESEESAGPLLKGKPRALGGAAAGGGAAAVPPGAAAGGVALVPKEDSRFSAPRVALVEQDAPMAPGRSPLATTVMDFIHVPILPLNHALLAARTRQLLEDESYDGGAGAASAFAPPRSSPCASSTPVAVGDFPDCAYPPDAEPKDDAYPLYSDFQPPALKIKEEEEGAEASARSPRSYLVAGANPAAFPDFPLGPPPPLPPRATPSRPGEAAVTAAPASASVSSASSSGSTLECILYKAEGAPPQQGPFAPPPCKAPGASGCLLPRDGLPSTSASAAAAGAAPALYPALGLNGLPQLGYQAAVLKEGLPQVYPPYLNYLRPDSEASQSPQYSFESLPQKICLICGDEASGCHYGVLTCGSCKVFFKRAMEGQHNYLCAGRNDCIVDKIRRKNCPACRLRKCCQAGMVLGGRKFKKFNKVRVVRALDAVALPQPVGVPNESQALSQRFTFSPGQDIQLIPPLINLLMSIEPDVIYAGHDNTKPDTSSSLLTSLNQLGERQLLSVVKWSKSLPGFRNLHIDDQITLIQYSWMSLMVFGLGWRSYKHVSGQMLYFAPDLILNEQRMKESSFYSLCLTMWQIPQEFVKLQVSQEEFLCMKVLLLLNTIPLEGLRSQTQFEEMRSSYIRELIKAIGLRQKGVVSSSQRFYQLTKLLDNLHDLVKQLHLYCLNTFIQSRALSVEFPEMMSEVIAAQLPKILAGMVKPLLFHKK
notes: progesterone receptor; Assayed in cells treated with progesterone; source: fibroblasts (immortalized), transiently transfected, in live cells
[5]
  nuclear brightness (ε) relative to monomer control; transiently transfected fibroblasts, progesterone: 2.07
